Results taken from US20240409645A1 (DUALYX, published 2024).

Legend:
human IL-2Rβ [1] = target: T1, human IL-2Rβ (human, UniProt P14784 27-240, limits assumed); experiment: P.E. binding ELISA, human IL-2Rβ coated
T1 construct: Recombinant human IL-2Rβ protein, coated on ELISA plates or immobilized on a CM5 chip; also called hu IL-2R; interleukin 2 receptor β-chain
T1 sequence: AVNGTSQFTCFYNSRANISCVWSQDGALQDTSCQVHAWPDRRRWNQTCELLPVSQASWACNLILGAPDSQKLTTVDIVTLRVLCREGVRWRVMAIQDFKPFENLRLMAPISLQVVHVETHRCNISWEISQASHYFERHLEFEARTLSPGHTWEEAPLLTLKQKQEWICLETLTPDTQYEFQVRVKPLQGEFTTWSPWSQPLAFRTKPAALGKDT
Procedure: In a binding ELISA, human or mouse IL-2Rα, IL-2Rβ and IL-2Rγ proteins were coated directly on maxisorp microtiter plates overnight at 4° C. Free binding sites were blocked using 4% Marvel in PBS for 1 hour. Next, 1:5 dilution of P.E. in 1% Marvel/PBS were added to wells and incubated for 1 hour. […] Binding specificity was determined based on O.D. at 450 nm values compared to negative controls.

human IL-2Rβ [2] = target: T1, human IL-2Rβ; experiment: SPR off-rate ranking of P.E., human IL-2Rβ immobilized
Procedure: SPR was performed to determine dissociation rates using Biacore 3000 instrument (GE Healthcare). Briefly, human and mouse IL-2R proteins were immobilized on carboxylmethyl dextran sensor chip (CM5) at approximately 2500 RUs using amine coupling in acetate buffer (GE Healthcare). The VHH-containing P.E. were loaded with a flow rate of 30 uL/min and the off-rates were measured over a 120s period.

B1: FJ1427_P035MP06A06 (VHH)
VHH: QLQLVESGGGLVQAGGSLRLACALSGDVFVRYTMAWFRQAPGKEREFVASVTDSGRTTDYVASVQGRFTVSRDNNKNTVYLQMNSLKPEDTAVYYCAANTDYFQIRSLDRNTWGQGTQVTVSS
notes: Soluble VHH in periplasmic extract (P.E.); also called Clone nr
Human IL-2Rβ [1]
  OD450 nm (P.E. binding ELISA): 0.3 OD450 nm
Human IL-2Rβ [2]
  koff: 0.000631 s⁻¹

B2: FJ1427_P035MP06D04 (VHH)
VHH: QVQLQESGGGLVQAGGSLRLSCVVSGDVFVRYTMAWFRQAPGKEREFVAVVTDSGRTTEYVDSVKGRFTVSRDNAKNTVYLQMNNLKPEDTAVYYCAANTDYFQIRSVDNNAWGQGTQVTVSS
notes: as for B1
Human IL-2Rβ [1]
  OD450 nm (P.E. binding ELISA): 0.189 OD450 nm
Human IL-2Rβ [2]
  koff: 0.000621 s⁻¹

B3: FJ1427_P035MP06D05 (VHH)
VHH: QVQLVESGGGLVQAGGSLRLSCAVSGDVFVRYTMAWFRQAPGKEREFVASVTDSGRTTEYVDSVKGRFTVSRDNAKNTVYLQMNSLKPEDTAVYYCAANTDYFQIRSLRANTWGQGTQVTVSS
notes: as for B1
Human IL-2Rβ [1]
  OD450 nm (P.E. binding ELISA): 0.304 OD450 nm
Human IL-2Rβ [2]
  koff: 0.000483 s⁻¹

B4: FJ1427_P035MP06B10 (VHH)
VHH: QVQLVESGGGLVQAGGSLRLSCAASGDVLVRYTMAWFRQAPGKEREFVASVTDSGRTTEYVDSVKGRFTVSRDNAKNTAYLQMNNLKPEDTAIYYCAANTDYFQIRSLDLNTWGQGTQVTVSS
notes: Soluble VHH in periplasmic extract (P.E.); also called Clone nr; 554
Human IL-2Rβ [1]
  OD450 nm (P.E. binding ELISA): 0.264 OD450 nm
Human IL-2Rβ [2]
  koff: 0.00223 s⁻¹

B5: FJ1427_P035MP06B05 (VHH)
VHH: QVQLVESGGGLVQAGGSLRLSCAASGDVFVRYTMAWFRQAPGKEREFVASVTDSGRTTDYVDSVKGRFTVSRDNAKNTVYLQMNNLKPEDTAVYYCAANTDYFQIRSLEFNTWGQGTQVTVSS
notes: as for B1
Human IL-2Rβ [1]
  OD450 nm (P.E. binding ELISA): 0.617 OD450 nm
Human IL-2Rβ [2]
  koff: 0.000871 s⁻¹

B6: FJ1427_P035MP06G02 (VHH)
VHH: EVQLVESGGGLVQAGGSLRLSCVVSGDVFVRYTMAWFRQAPRKEREFVAVVTDSGRTTEYVDSVKGRFTVSRDNAKNTVYLQMNNLKPEDTAVYYCAANTDYFQIRSVDNNAWGQGTQVTVSS
notes: as for B1
Human IL-2Rβ [1]
  OD450 nm (P.E. binding ELISA): 0.677 OD450 nm
Human IL-2Rβ [2]
  koff: 0.000619 s⁻¹

B7: FJ1427_P035MP06D06 (VHH)
VHH: EVQLVESGGGLVQAGGSLRLSCAVSGDVFVRYTMAWFRQAPGKEREFVASVTDSGRTTEYVDSVKGRFTVSRDNAKNTAYLQMNNLKPEDTAVYYCAANTDYFQIRSLDLNTWGQGTQVTVSS
notes: as for B1
Human IL-2Rβ [1]
  OD450 nm (P.E. binding ELISA): 0.289 OD450 nm
Human IL-2Rβ [2]
  koff: 0.00029 s⁻¹

B8: FJ1427_P035MP06D07 (VHH)
VHH: QVQLVESGGGLVQAGGSLRLSCAASGDVFVRYTMAWFRQAPGKEREFVASVTDSGRTTEYVDSVKGRFTVSRDNAKNTAYLQMNNLKPEDTAIYYCAANTDYFQIRSLDLNTWGQGTQVTVSS
notes: Soluble VHH in periplasmic extract (P.E.); also called Clone nr; 532
Human IL-2Rβ [1]
  OD450 nm (P.E. binding ELISA): 0.957 OD450 nm
Human IL-2Rβ [2]
  koff: 0.000346 s⁻¹

B9: FJ1427_P035MP06B07 (VHH)
VHH: EVQLVESGGGLVQAGGSLRLSCAVSGDVFVRYTMAWFRQAPGKEREFVASVTDSGRTTEYVDSVKGRFTVSRDNAKNTAYLQMNNLKPEDTAVYYCAANTDYFQIRSLDLNTWGQGTQVTVSS
notes: Soluble VHH in periplasmic extract (P.E.); also called Clone nr; 530
Human IL-2Rβ [1]
  OD450 nm (P.E. binding ELISA): 1.01 OD450 nm
Human IL-2Rβ [2]
  koff: 0.000285 s⁻¹

B10: FJ1427_P035MP06G04 (VHH)
VHH: QVQLQESGGGLVQAGGSLRLSCVVSGDVFVRYTMAWFRQAPGKEREFVAVVTDSGRTTEYVDSVKGRFTVSRDNAKNTVYLQMNNLKPEDTAVYYCAANTDYFQIRSVDNNAWGQGTQVTVSS
notes: as for B1
Human IL-2Rβ [1]
  OD450 nm (P.E. binding ELISA): 0.213 OD450 nm
Human IL-2Rβ [2]
  koff: 0.000641 s⁻¹

B11: FJ1427_P035MP06F06 (VHH)
VHH: QVQLVESGGGLVQAGGSLRLSCAASGDVFVRYTMAWFRQAPGKEREFVASVTDSGRTTDYVDSVKGRFTVSRDNAKNTVYLQMNNLKPEDTAVYYCAANTDYFQIRSLEFNTWGQGTQVTVSS
notes: as for B1
Human IL-2Rβ [1]
  OD450 nm (P.E. binding ELISA): 0.224 OD450 nm
Human IL-2Rβ [2]
  koff: 0.000935 s⁻¹

B12: FJ1427_P035MP06G08 (VHH)
VHH: QVQLQESGGGLVQAGGSLRLSCAASGDVFVRYTMAWFRQAPGKEREFVASVTDSGRTTEYVDSVKGRFTVSRDNAKNTAYLQMNNLKPEDTAVYYCAANTDYFQIRSLNLNTWGQGTQVTVSS
notes: Soluble VHH in periplasmic extract (P.E.); also called Clone nr; 543
Human IL-2Rβ [1]
  OD450 nm (P.E. binding ELISA): 0.255 OD450 nm
Human IL-2Rβ [2]
  koff: 0.000286 s⁻¹

B13: FJ1427_P035MP06G03 (VHH)
VHH: QVQLVESGGGLVQAGGSLRLSCVVSGDVFVRYTMAWFRQAPGKEREFVAVVTDSGRTTEYVDSVKGRFTVSRDNAKNTVYLQMNNLKPEDTAVYYCAANTDYFQIRSVDNNAWGQGTQVTVSS
notes: Soluble VHH in periplasmic extract (P.E.); also called Clone nr; 503
Human IL-2Rβ [1]
  OD450 nm (P.E. binding ELISA): 0.267 OD450 nm
Human IL-2Rβ [2]
  koff: 0.000586 s⁻¹

B14: FJ1427_P035MP06C05 (VHH)
VHH: EVQLVESGGGLVQAGGSLRLSCVVSGDVFVRYTMAWFRQAPGKGREFVAVVTDSGRTTEYVDSVKGRFTVSRDNAKNTVYLQMNNLKPEDTAVYYCAANTDYFQIRSVDNNAWGQGTQVTVSS
notes: as for B1
Human IL-2Rβ [1]
  OD450 nm (P.E. binding ELISA): 0.58 OD450 nm
Human IL-2Rβ [2]
  koff: 0.000751 s⁻¹

B15: FJ1427_P035MP06B09 (VHH)
VHH: QVQLVESGGGLVQAGGSLRLSCAVSGDVLVRYTMAWFRQAPGKEREFVASVTDSGRTTEYVDSVKGRFTVSRDNAKNTAYLQMNNLKPEDTAVYYCAANTDYFQIRSLDLNTWGQGTQVTVSS
notes: Soluble VHH in periplasmic extract (P.E.); also called Clone nr; 546
Human IL-2Rβ [1]
  OD450 nm (P.E. binding ELISA): 0.329 OD450 nm
Human IL-2Rβ [2]
  koff: 0.00225 s⁻¹

B16: FJ1427_P035MP06C08 (VHH)
VHH: QVQLVESGGGLVQAGGSLRLSCAASGDVFVRYTMAWFRQAPGKEREFVASVTDSGRTTEYVDSVKGRFTVSRDNAKNTAYLQMNNLKPEDTAIYYCAANTDYFQIRSLDLNTWGQGTQVTVSS
notes: as for B1
Human IL-2Rβ [1]
  OD450 nm (P.E. binding ELISA): 0.297 OD450 nm
Human IL-2Rβ [2]
  koff: 0.000335 s⁻¹

B17: FJ1427_P035MP06F02 (VHH)
VHH: QVQLQESGGGLVQAGGSLRLSCAASGDVFVRYTMAWFRQAPGKEREFVASVTDSGRTTDYVDSVKGRFTVSRDNAKNTVYLQMNALKPEDTAVYYCAANTDYFQIKSLDLNTWGQGTQVTVSS
notes: as for B1
Human IL-2Rβ [1]
  OD450 nm (P.E. binding ELISA): 0.278 OD450 nm
Human IL-2Rβ [2]
  koff: 0.00037 s⁻¹

B18: FJ1427_P035MP06F08 (VHH)
VHH: QVQLVESGGGLVQAGGSLRLSCAASGDVFVRYTMAWFRQAPGKEREFVASVTDSGRTTEYVDSVKGRFTVSRDNAKNTAYLQMNNLKPEDTAVYYCAANTDYFQIRSLNLNTWGQGTQVTVSS
notes: Soluble VHH in periplasmic extract (P.E.); also called Clone nr; 542
Human IL-2Rβ [1]
  OD450 nm (P.E. binding ELISA): 0.343 OD450 nm
Human IL-2Rβ [2]
  koff: 0.000274 s⁻¹

B19: FJ1427_P035MP06G10 (VHH)
VHH: QVQLVESGGGLVQAGGSLRLSCAASGDVFVRYTMAWFRQAPGKEREFVASVTDSGRTTEYVDSVKGRFTVSRDNAKNTAYLQMNNLKPEDTAVYYCAANTDYFQIRSLNLNTWGQGTQVTVSS
notes: as for B1
Human IL-2Rβ [1]
  OD450 nm (P.E. binding ELISA): 1 OD450 nm
Human IL-2Rβ [2]
  koff: 0.000261 s⁻¹

B20: FJ1427_P035MP06C04 (VHH)
VHH: QVQLQESGGGLVQAGGSLRLSCAASGDVFVRYTMAWFRQAPGKEREFVASVTDSGRTTDYVDSVKGRFTVSRDNAKNTVYLQMNNLKPEDTAVYYCAANTDYFQIRSLEFNTWGQGTQVTVSS
notes: as for B1
Human IL-2Rβ [1]
  OD450 nm (P.E. binding ELISA): 0.187 OD450 nm
Human IL-2Rβ [2]
  koff: 0.00084 s⁻¹

B21: FJ1427_P035MP06D03 (VHH)
VHH: QVQLVESGGGLVQAGGSLRLSCAASGDVFVRYTMAWFRQAPGKEREFVASVTDSGRTTEYVDSVKGRFTVSRDNAKNTAYLQMNNLKPEDTAIYYCAANTDYFQIRSLDLNTWGQGTQVTVSS
notes: Soluble VHH in periplasmic extract (P.E.); also called Clone nr; 500
Human IL-2Rβ [1]
  OD450 nm (P.E. binding ELISA): 1.02 OD450 nm
Human IL-2Rβ [2]
  koff: 0.00029 s⁻¹

B22: FJ1427_P035MP06C06 (VHH)
VHH: QVQLQESGGGLVQAGGSLRLSCVVSGDVFVRYTMAWFRQAPGKEREFVAVVTDSGRTTEYVDSVKGRFTVSRDNAKNTVYLQMNNLKPEDTAVYYCAANTDYFQIRSVDNNAWGQGTQVTVSS
notes: Soluble VHH in periplasmic extract (P.E.); also called Clone nr; 523
Human IL-2Rβ [1]
  OD450 nm (P.E. binding ELISA): 0.255 OD450 nm
Human IL-2Rβ [2]
  koff: 0.000698 s⁻¹

B23: FJ1427_P035MP06E08 (VHH)
VHH: EVQLVESGGGLVQAGGSLRLSCAVSGDVFVRYTMAWFRQAPGKEREFVASVTDSGRTTEYVDSVKGRFTVSRDNAKNTAYLQMNNLKPEDTAVYYCAANTDYFQIRSLDLNTWGQGTQVTVSS
notes: as for B1
Human IL-2Rβ [1]
  OD450 nm (P.E. binding ELISA): 0.359 OD450 nm
Human IL-2Rβ [2]
  koff: 0.000267 s⁻¹

B24: FJ1427_P035MP06A09 (VHH)
VHH: EVQLVESGGGLVQAGGSLRLSCAASGDVFVRYTMAWFRQAPGKEREFVASVTDSGRTTDYVDSVKGRFTVSRDNAKNTVYLQMNNLKPEDTAVYYCAANTDYFQIKSLDRNTWGQGTQVTVSS
notes: as for B1
Human IL-2Rβ [1]
  OD450 nm (P.E. binding ELISA): 0.192 OD450 nm
Human IL-2Rβ [2]
  koff: 0.000947 s⁻¹

B25: FJ1427_P035MP06E06 (VHH)
VHH: EVQLVESGGGLVQAGGSLRLFCAVSGDVFVRYTMAWFRQAPGKEREFVASVTDSGRTTEYVDSVKGRFTVSRDNAKDTAYLQMNNLKPEDTAVYYCAANTDYFQIRSLDLNTWGQGTQVTVSS
notes: Soluble VHH in periplasmic extract (P.E.); also called Clone nr; 525
Human IL-2Rβ [1]
  OD450 nm (P.E. binding ELISA): 1.45 OD450 nm
Human IL-2Rβ [2]
  koff: 0.000241 s⁻¹
